Bridge positions count the residues as written; N and C are the ends. Square brackets hold non-standard residues; d marks the D form. Ends that are not written are not given here. Pen = CC(C)(S)[C@H](N)C(=O)O
B1: cIB-C (peptide)
peptide: [Pen]PSKVILPRGGC
modifications: disulfide 1-12; not fully specified
B2: IE (peptide)
peptide: DQPKLLGIETPLPKKELLLPGNNRK
B3: IB (peptide)
peptide: QTSVSPSKVILPRGGSVLVTG
B4: cIB-R (peptide)
peptide: CLPRGGSVLVTC
modifications: disulfide 1-12; not fully specified
B5: cIB-L (peptide)
peptide: [Pen]QTSVSPSKVIC
modifications: disulfide 1-12; not fully specified
B6: cIE-C (peptide)
peptide: [Pen]ETPLPKKELLC
modifications: disulfide 1-12; not fully specified
B7: cLBE-C (peptide)
peptide: [Pen]DLRNVKKLGGC
modifications: disulfide 1-12; not fully specified
B8: EBL (peptide)
peptide: ENLARLLDGGLKKVNRLDDLSYSLD
B9: LAB (peptide)
peptide: ITDGEATDSGNIDAAKDIIYIIGI
B10: LBE (peptide)
peptide: DLSYSLDDLRNVKKLGGDLLRALNE
B11: cLBE-R (peptide)
peptide: [Pen]GGLLRALNEC
modifications: disulfide 1-11; not fully specified
B12: cLAB.2-L (peptide)
peptide: [Pen]GVDVDQDGETC
modifications: disulfide 1-12; not fully specified
B13: LAB.2 (peptide)
peptide: GVDVDQDGETELIGAPLFYGEQRG
B14: cLAB-R (peptide)
peptide: [Pen]AKDIIYIIGIC
modifications: disulfide 1-12; not fully specified
B15: cLAB-C (peptide)
peptide: [Pen]DSGNIDAAKDC
modifications: disulfide 1-12; not fully specified
B16: cLAB-L (peptide)
peptide: XITDGEATDSGC
modifications: not fully specified; cyclic: disulfide bridge between the amino-terminal penicillamine (Xaa in the Sequence Listing) or cysteine and the carboxy-terminal cysteine
B17: cLBE-L (peptide)
peptide: [Pen]DLSYSLDDLRC
modifications: disulfide 1-12; not fully specified

molecular target: leukocyte function-associated antigen (LFA-1) (human, UniProt P20701 26-1170; P05107 23-769); assay: cell-based or functional assay
Sequence (P20701 26-1170, chain 1 of 2): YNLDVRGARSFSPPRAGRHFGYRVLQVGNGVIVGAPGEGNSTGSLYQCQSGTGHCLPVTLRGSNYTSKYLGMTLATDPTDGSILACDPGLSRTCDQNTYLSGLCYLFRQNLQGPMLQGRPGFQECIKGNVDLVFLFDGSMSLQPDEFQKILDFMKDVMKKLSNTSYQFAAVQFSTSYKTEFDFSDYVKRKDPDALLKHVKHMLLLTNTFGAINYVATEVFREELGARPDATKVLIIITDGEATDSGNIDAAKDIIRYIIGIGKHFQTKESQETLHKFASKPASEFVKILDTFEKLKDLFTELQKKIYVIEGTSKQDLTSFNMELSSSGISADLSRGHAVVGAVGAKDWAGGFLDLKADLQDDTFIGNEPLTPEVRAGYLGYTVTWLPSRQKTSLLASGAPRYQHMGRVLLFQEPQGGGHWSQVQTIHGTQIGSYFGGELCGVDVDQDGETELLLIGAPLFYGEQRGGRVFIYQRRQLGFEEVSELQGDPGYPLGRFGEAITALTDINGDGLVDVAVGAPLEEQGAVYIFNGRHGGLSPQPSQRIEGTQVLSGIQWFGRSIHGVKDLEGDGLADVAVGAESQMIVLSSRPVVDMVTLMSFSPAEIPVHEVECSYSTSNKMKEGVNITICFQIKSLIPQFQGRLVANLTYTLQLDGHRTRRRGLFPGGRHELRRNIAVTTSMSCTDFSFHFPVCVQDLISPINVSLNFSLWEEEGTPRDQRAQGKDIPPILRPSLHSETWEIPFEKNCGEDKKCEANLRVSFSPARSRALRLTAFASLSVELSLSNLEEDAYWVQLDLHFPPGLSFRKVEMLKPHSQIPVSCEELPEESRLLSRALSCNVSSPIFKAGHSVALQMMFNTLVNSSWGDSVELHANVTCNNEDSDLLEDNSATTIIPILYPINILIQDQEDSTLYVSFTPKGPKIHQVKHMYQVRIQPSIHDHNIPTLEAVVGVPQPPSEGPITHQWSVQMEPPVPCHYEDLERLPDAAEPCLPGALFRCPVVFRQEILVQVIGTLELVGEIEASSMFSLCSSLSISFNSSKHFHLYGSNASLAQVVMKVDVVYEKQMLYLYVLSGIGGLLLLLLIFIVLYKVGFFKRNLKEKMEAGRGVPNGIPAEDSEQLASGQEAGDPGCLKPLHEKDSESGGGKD
Sequence (P05107 23-769, chain 2 of 2): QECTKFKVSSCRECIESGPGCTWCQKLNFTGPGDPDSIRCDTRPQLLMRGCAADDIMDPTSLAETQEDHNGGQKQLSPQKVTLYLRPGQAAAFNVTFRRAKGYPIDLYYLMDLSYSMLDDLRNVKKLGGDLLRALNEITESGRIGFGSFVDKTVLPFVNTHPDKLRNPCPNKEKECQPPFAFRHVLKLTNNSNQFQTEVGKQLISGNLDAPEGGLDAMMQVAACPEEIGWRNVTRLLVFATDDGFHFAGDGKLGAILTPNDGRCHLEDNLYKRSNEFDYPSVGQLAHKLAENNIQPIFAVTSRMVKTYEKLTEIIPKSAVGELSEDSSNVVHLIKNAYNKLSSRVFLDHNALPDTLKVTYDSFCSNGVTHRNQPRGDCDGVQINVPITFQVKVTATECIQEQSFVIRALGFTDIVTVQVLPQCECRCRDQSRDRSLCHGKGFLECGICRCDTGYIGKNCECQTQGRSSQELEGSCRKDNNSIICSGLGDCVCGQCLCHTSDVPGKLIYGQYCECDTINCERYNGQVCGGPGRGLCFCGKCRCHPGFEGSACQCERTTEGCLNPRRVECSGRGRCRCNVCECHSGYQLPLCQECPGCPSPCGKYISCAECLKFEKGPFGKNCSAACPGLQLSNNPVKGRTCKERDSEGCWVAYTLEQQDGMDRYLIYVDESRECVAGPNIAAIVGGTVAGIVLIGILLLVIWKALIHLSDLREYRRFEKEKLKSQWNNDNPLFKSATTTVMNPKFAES

Clumping Index	Binder
61 clumping index (0-100)	B1
63 clumping index (0-100)	B2
56 clumping index (0-100)	B3
73 clumping index (0-100)	B4
61 clumping index (0-100)	B5
23 clumping index (0-100)	B6

molecular target: intercellular adhesion molecule (ICAM-1) (human, UniProt P05362 28-532); assay: cell-based or functional assay
Sequence (P05362 28-532): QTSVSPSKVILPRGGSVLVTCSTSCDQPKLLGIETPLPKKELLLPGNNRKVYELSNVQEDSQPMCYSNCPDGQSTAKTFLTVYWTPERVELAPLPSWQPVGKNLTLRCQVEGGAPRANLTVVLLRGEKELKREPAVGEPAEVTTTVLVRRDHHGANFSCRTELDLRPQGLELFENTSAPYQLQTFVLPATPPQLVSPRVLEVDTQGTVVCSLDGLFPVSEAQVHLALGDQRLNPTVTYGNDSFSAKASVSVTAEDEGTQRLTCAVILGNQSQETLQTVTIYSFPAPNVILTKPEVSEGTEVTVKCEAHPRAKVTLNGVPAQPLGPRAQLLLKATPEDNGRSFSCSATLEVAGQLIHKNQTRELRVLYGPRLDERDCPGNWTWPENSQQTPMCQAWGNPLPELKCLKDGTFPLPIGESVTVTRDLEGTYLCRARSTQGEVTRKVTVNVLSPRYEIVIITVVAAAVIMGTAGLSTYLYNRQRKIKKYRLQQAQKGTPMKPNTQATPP

Clumping Index	Binder
82 clumping index (0-100)	B7
100 clumping index (0-100)	B8
75 clumping index (0-100)	B9
73 clumping index (0-100)	B10
100 clumping index (0-100)	B11
50 clumping index (0-100)	B12
48 clumping index (0-100)	B13
77 clumping index (0-100)	B14
80 clumping index (0-100)	B15
78 clumping index (0-100)	B16
75 clumping index (0-100)	B17

From patent publication US6653282B1, “Peptide Compositions which induce immune tolerance and methods of use” (priority 1996, dated 2003)
